A word on the stoichiometry N: it is the number of molecules, sites or subunits per partner or assembly.

This note sets out measurements from article doi:10.1101/2022.07.13.499703.

What all share (test): crystal structure
In assay [1] the target is BKPyV VP1 E73A variant pentamer (BK polyomavirus) (UniProt P03088).
The target of assay [2] is BKPyV VP1 E73Q variant pentamer (BK polyomavirus) (UniProt P03088).
The target of assay [3] is BKPyV VP1 A72V-E73Q-E82Q triple mutant (VQQ) pentamer (BK polyomavirus) (UniProt P03088).
In assay [4] the target is BKPyV VP1 K69N-E82Q double mutant (N-Q) pentamer (BK polyomavirus) (UniProt P03088).

In assay [1], “BKPyV VP1 E73A variant pentamer (from UniProt P03088 30-300) (domain or fragment)” showed a stoichiometry N of 5.
In the case of “BKPyV VP1 E73Q variant pentamer (from UniProt P03088 30-300) (domain or fragment)”, the stoichiometry N in assay [2] is 5.
For the substance “BKPyV VP1 A72V-E73Q-E82Q triple mutant (VQQ) pentamer (from UniProt P03088 30-300) (domain or fragment)”, the stoichiometry N in assay [3] is 5.
In turn, “BKPyV VP1 K69N-E82Q double mutant (N-Q) pentamer (from UniProt P03088 30-300) (domain or fragment)” displayed a stoichiometry N in assay [4] of 5.
